Laboratory results as given in patent US20120251547A1 (Amgen, published 2012).

How the values were obtained:
[1] = molecular target: T1, human IL-17RA, full-length, on cells (human, UniProt Q96F46 33-866); assay: cell-based or functional assay
[2] = molecular target: human IL-17RA (form used in the low resolution BIAcore not stated) (human, UniProt Q96F46 33-320, limits assumed); assay: low resolution BIAcore, subcloned hybridoma
[3] = molecular target: T1, human IL-17RA, full-length, on cells; assay: cell-based or functional assay; remark: listed apart in the source
[4] = molecular target: T2, cynomolgus IL-17RA, on cells (cynomolgus); assay: FACS competition: non-clonal supernatant inhibiting biotin-huIL-17A (competitor) binding to cyno IL-17RA+ CHO cells
T2 construct: whole, on cells; also called CHO-cynoIL-17RA; cyno IL-17RA+ CHO cells

huIL-17RA-FLAG-polyHis [5] = molecular target: T3, huIL-17RA-FLAG-polyHis (human, UniProt Q96F46 33-320); assay: binning; IL-17RA held by bead mAb O
T3 construct: also called IL-17RA-FLAG-pHis; wild-type IL-17RA

huIL-17RA-FLAG-polyHis [6] = molecular target: T3, huIL-17RA-FLAG-polyHis; assay: binning; IL-17RA held by bead mAb G
huIL-17RA-FLAG-polyHis [7] = molecular target: T3, huIL-17RA-FLAG-polyHis; assay: binning; IL-17RA held by bead mAb F
huIL-17RA-FLAG-polyHis [8] = molecular target: T3, huIL-17RA-FLAG-polyHis; assay: binning; IL-17RA held by bead mAb C
huIL-17RA-FLAG-polyHis [9] = molecular target: T3, huIL-17RA-FLAG-polyHis; assay: binning; IL-17RA held by bead mAb R
huIL-17RA-FLAG-polyHis [10] = molecular target: T3, huIL-17RA-FLAG-polyHis; assay: binning; IL-17RA held by bead mAb D
huIL-17RA-FLAG-polyHis [11] = molecular target: T3, huIL-17RA-FLAG-polyHis; assay: binning; IL-17RA held by bead mAb B
huIL-17RA-FLAG-polyHis [12] = molecular target: T3, huIL-17RA-FLAG-polyHis; assay: binning; IL-17RA held by bead mAb A
huIL-17RA-FLAG-polyHis [13] = molecular target: T3, huIL-17RA-FLAG-polyHis; assay: binning; IL-17RA held by bead mAb E
huIL-17RA-FLAG-polyHis [14] = molecular target: T3, huIL-17RA-FLAG-polyHis; assay: binning; IL-17RA held by bead mAb M
huIL-17RA-FLAG-polyHis [15] = molecular target: T3, huIL-17RA-FLAG-polyHis; assay: binning; IL-17RA held by bead mAb K
huIL-17RA-FLAG-polyHis [16] = molecular target: T3, huIL-17RA-FLAG-polyHis; assay: binning; IL-17RA held by bead mAb Q
huIL-17RA-FLAG-polyHis [17] = molecular target: T3, huIL-17RA-FLAG-polyHis; assay: binning; IL-17RA held by bead mAb H
huIL-17RA-FLAG-polyHis [18] = molecular target: T3, huIL-17RA-FLAG-polyHis; assay: binning; IL-17RA held by bead mAb P
huIL-17RA-FLAG-polyHis [19] = molecular target: T3, huIL-17RA-FLAG-polyHis; assay: binning; IL-17RA held by bead mAb L
huIL-17RA-FLAG-polyHis [20] = molecular target: T3, huIL-17RA-FLAG-polyHis; assay: binning; IL-17RA held by bead mAb J
huIL-17RA-FLAG-polyHis [21] = molecular target: T3, huIL-17RA-FLAG-polyHis; assay: binning; IL-17RA held by bead mAb I
huIL-17RA-FLAG-polyHis [22] = molecular target: T3, huIL-17RA-FLAG-polyHis; assay: binning; IL-17RA held by bead mAb N

Row | Binder | Kd [2] [nM] | % inhibition of IL-6 Production, IL-17A/HFF bioassay, non-clonal supernatant 1:4 [3] [%] | % inhibition of IL-6 Production, IL-17A/HFF bioassay, non-clonal supernatant 1:32 [3] [%] | % inhibition of IL-6 Production, IL-17A/HFF bioassay, non-clonal supernatant 1:128 [3] [%] | MFI [4] | normalized MFI (huIL-17RA-FLAG-polyHis [5]) | normalized MFI (huIL-17RA-FLAG-polyHis [6]) | normalized MFI (huIL-17RA-FLAG-polyHis [7]) | normalized MFI (huIL-17RA-FLAG-polyHis [8]) | normalized MFI (huIL-17RA-FLAG-polyHis [9]) | normalized MFI (huIL-17RA-FLAG-polyHis [10]) | normalized MFI (huIL-17RA-FLAG-polyHis [11]) | normalized MFI (huIL-17RA-FLAG-polyHis [12]) | normalized MFI (huIL-17RA-FLAG-polyHis [13]) | normalized MFI (huIL-17RA-FLAG-polyHis [14]) | normalized MFI (huIL-17RA-FLAG-polyHis [15]) | normalized MFI (huIL-17RA-FLAG-polyHis [16]) | normalized MFI (huIL-17RA-FLAG-polyHis [17]) | normalized MFI (huIL-17RA-FLAG-polyHis [18]) | normalized MFI (huIL-17RA-FLAG-polyHis [19]) | also measured
1 | AMH13/AML13 (antibody, IgG2, V domains shown, human mAb from IgG2 XenoMouse mice; also called AM-13) VH: QVQLVESGGGVVQPGRSLRLSCAASGFTFSSYGMQWVRQAPGKGLEWVAVIWYDGNKKYYADSVKGRFTISRDNSKNTLYLQMNSLRAEDTAVYYCARGRVRDYYYGMDVWGQGTTVTVSS VL: DIVMTQTPLSLSVTPGQPASIACKSSQSLLHSDGKTYLYWYLQKPGQPPQLLIYEVSTRFSGVPDRFSGSGSGTDFTLKISRVEAEDVGVFYCMQSIQLPLTFGGGTKVEIK | 7.6 | 73 | 78 | 75 | 6 | – | – | – | – | – | – | – | – | – | – | – | – | – | – | – | IL-17A/HFF bioassay IC50, subclone 13 [1]: > 10 nM
2 | AMH12/AML12 (antibody, IgG2, V domains shown, human mAb from IgG2 XenoMouse mice; also called AM-12; antibody M) VH: QVQLVQSGAEVKKPGASVKVSCKASGYTLTSYGISWVRQAPGQGLEWMGWISTYKGNTNYAQKLQGRVTMTTDTSTSTAYMELRSLRSDDTAVYYCARKQLVFDYWGQGTLVTVSS VL: EIVMTQSPATLSVSPGERATLSCRASQSISSSLAWYQQKPGQAPRLLIYGASTRATGIPARFSGSGSGTEFTLTISSLQSENFAVYYCQQYDNWPLTFGGGTKVEIK | 8.2 | 75 | 82 | 61 | 6 | 49 | 3280 | 1410 | 3040 | 40 | 888 | 455 | 1940 | 765 | 20 | -5 | 60 | 73 | 1900 | 18 | IL-17A/HFF bioassay IC50, subclone 17 [1]: 3.5 nM; IL-17A/HFF bioassay IC50, subclone 18 [1]: 3.7 nM; IL-17A/HFF bioassay IC50, subclone 20 [1]: 5.5 nM; normalized MFI (huIL-17RA-FLAG-polyHis [20]): 31; normalized MFI (huIL-17RA-FLAG-polyHis [21]): 26; normalized MFI (huIL-17RA-FLAG-polyHis [22]): 11
3 | AMH17/AML17 (antibody, V domains shown, human mAb from IgG2 XenoMouse mice; also called AM-17; antibody N) VH: QVQLVQSGAEVKKPGAAVKVSCKATGYTLTSYGISWVRQAPGQGLEWMGWISAYSGNTKYAQKLQGRVTMTTDTSTSTAYMELRSLRSDDTAVYYCARKQLVFDYWGQGTLVTVSS VL: not shown | 8.2 | 90 | 81 | 73 | 8 | 55 | 4260 | 1920 | 3980 | 76 | 1200 | 597 | 2470 | 999 | 40 | -44 | 98 | 68 | 2470 | -1 | IL-17A/HFF bioassay IC50, subclone 21 [1]: 2.5 nM; IL-17A/HFF bioassay IC50, subclone 22 [1]: 5.3 nM; IL-17A/HFF bioassay IC50, subclone 23 [1]: 0.57 nM; normalized MFI (huIL-17RA-FLAG-polyHis [20]): 8; normalized MFI (huIL-17RA-FLAG-polyHis [21]): 18; normalized MFI (huIL-17RA-FLAG-polyHis [22]): 43
